From PMC11997425, “MADS-domain transcription factor AGAMOUS LIKE-9 participates in the gibberellin pathway to promote bud dormancy release of tree peony” come the findings set out here.

Data set [1] concerns the target T1, GST-PsAGL9 (Paeonia suffruticosa, UniProt V9I0Q3 1-243). Put plainly: EMSA; Chemiluminescent EMSA Kit (Beyotime); buffer, salt, pH and temperature not stated. As to conditions: protein: recombinant; tags: GST (pGEX-4T-1); label: biotin.
In data set [2] the target is T1, GST-PsAGL9. Put plainly: competition; 10x and 20x cold mutant probe did not affect signal; Chemiluminescent EMSA Kit (Beyotime); buffer, salt, pH and temperature not stated. The settings on record: protein: recombinant; tags: GST (pGEX-4T-1). Background: Mobility shift assays separate free from complexed probe on a gel.
Data set [3] addresses T1, GST-PsAGL9. Put plainly: EMSA; 10x and 20x cold probe weakened signal; Chemiluminescent EMSA Kit (Beyotime); buffer, salt, pH and temperature not stated. The settings on record: protein: recombinant; tags: GST (pGEX-4T-1); label: biotin; blunt.

T1 sequence (V9I0Q3 entry or part of it): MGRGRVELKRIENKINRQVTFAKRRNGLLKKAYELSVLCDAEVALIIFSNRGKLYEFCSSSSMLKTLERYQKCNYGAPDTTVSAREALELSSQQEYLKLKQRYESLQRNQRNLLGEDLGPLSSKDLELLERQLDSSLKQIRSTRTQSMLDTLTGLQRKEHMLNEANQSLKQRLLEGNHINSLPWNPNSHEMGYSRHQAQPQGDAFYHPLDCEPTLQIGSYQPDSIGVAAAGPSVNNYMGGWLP

B1: PsEBB3 CArG probe (dsDNA)
DNA 1: ATGTCCATAATTTAGGCCTA
DNA 2: TAGGCCTAAATTATGGACAT
Consider B1, for which the binding result with GST-PsAGL9 [1] is given as “binds”.

B2: PsCYCD mutant probe (cold-mP) (dsDNA)
DNA 1: TTTGGCCGACCGGGGTTAA
DNA 2: TTAACCCCGGTCGGCCAAA
B2: the binding result with GST-PsAGL9 [2] is on record as “no binding”.

B3: PsCYCD CArG probe (dsDNA)
DNA 1: TTTGGCCAATTTTGGTTAA
DNA 2: TTAACCAAAATTGGCCAAA
On to B3, for which the binding result with GST-PsAGL9 [3] was “binds”.
